T1: recombinant human Siglec15-his protein (human, UniProt Q6ZMC9 20-263)
T1 construct: In house made; Biotin-labeled in the capture ELISA
T1 sequence: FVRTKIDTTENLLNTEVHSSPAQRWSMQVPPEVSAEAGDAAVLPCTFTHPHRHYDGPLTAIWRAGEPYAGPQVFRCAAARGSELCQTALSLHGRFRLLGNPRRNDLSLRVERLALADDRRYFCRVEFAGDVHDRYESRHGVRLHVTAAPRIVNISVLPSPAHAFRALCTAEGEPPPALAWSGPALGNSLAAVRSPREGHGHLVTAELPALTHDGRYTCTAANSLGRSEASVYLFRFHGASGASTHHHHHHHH

T2: mouse Siglec15-his protein (mouse)
T2 construct: In house made
T2 chain: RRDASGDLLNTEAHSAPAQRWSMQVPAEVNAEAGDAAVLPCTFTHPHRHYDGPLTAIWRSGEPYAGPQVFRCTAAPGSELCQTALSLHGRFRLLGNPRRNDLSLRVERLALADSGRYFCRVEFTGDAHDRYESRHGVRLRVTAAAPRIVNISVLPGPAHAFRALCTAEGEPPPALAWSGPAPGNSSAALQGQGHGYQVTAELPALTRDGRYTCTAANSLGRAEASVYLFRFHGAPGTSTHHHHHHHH


Columns and labels:
[1] = target: T1, recombinant human Siglec15-his protein; experiment: capture ELISA, captured antibody, biotin-labeled human Siglec15-his in solution
Method: Briefly, 96-well plates were coated with 100 μl of 2 μg/ml AffiniPure Goat Anti-Human IgG F(ab′)₂ fragment specific (Jackson Immuno Research, Cat #109-005-097) in PBS for 2 hours at 37° C. Plates were washed once with wash buffer (PBS+0.05% v/v Tween-20, PBST) and then blocked with 200 μl blocking buffer (5% w/v non-fatty milk in PBST) overnight at 4° C. Plates were washed 4 times and respectively incubated with 100 μl serially diluted anti-Siglec15 antibodies of the disclosure, the benchmark and hIgG (human immunoglobulin (pH4) for intravenous injection, Hualan Biological Engineering Inc.), 5-fold dilution in 2.5% w/v non-fatty milk in PBST starting at 66.7 nM, for 40 minutes at 37° C., and then washed 4 times again. Plates containing captured antibodies were incubated with 100 μl biotin-labeled human Siglec15-his protein (in house made with SEQ ID NO: 20, 145 ng/ml in 2.5% w/v non-fatty milk in PBST) for 40 minutes at 37° C., washed 4 times, and incubated with streptavidin conjugated HRP (1:10000 dilution in PBST, Jackson Immuno Research, Cat #016-030-084, 100 μl/well) for 40 minutes at 37° C. After a final wash, plates were incubated with 100 μl/well ELISA substrate TMB (Innoreagents, Cat #TMB-S-002). The reaction was stopped in 4 minutes at room temperature with 50 μl/well 1M H₂SO₄, and the absorbance of each well was read on a microplate reader using dual wavelength mode with 450 nm for TMB and 630 nm as the reference wavelength, then the OD (450-630) values were plotted against antibody concentration. Data was analyzed using Graphpad Prism software and EC₅₀ values were reported.

[2] = target: T3, human Siglec15-Fc protein (human); experiment: competitive ELISA: coated human Siglec15-Fc, blocked ligand biotin-labeled human LRRC4C-Fc
T3 construct: In house made; also called recombinant human Siglec15 protein with human IgG1 Fc at the C-terminus
Method: Serially diluted anti-Siglec15 antibodies or the controls (starting at 66.67 nM with a 5-fold serial dilution) in PBST with 2.5% w/v non-fatty milk were added to the Siglec15-Fc bound plates, 100 μl per well, and incubated with the human Siglec15-Fc protein at 37° C. for 40 minutes. Plates were washed 4 times again using wash buffer, then added and incubated for 40 minutes at 37° C. with 100 μl/well 290 ng/ml biotin-labeled human LRRC4C-Fc protein (prepared in-house with SEQ ID NO: 23). Plates were washed again using wash buffer. Thereafter, the plates were added with 100 μl/well streptavidin conjugated HRP (1:5000 dilution in PBST buffer, Jackson Immunoresearch, Cat #016-030-084) and incubated for 40 minutes at 37° C. Plates were washed again using wash buffer. Finally, TMB was added and the reaction was stopped using 1M H₂SO₄, and the absorbance of each well was read on a microplate reader using dual wavelength mode with 450 nm for TMB and 630 nm as the reference wavelength, then the OD (450-630) values were plotted against antibody concentration. Data was analyzed using Graphpad Prism software and IC₅₀ values were reported.

[3] = target: T2, mouse Siglec15-his protein; experiment: indirect ELISA on coated mouse Siglec15-his
Method: The anti-Siglec15 antibodies' cross-reactions to cynomolgus or mouse Siglec15 proteins were measured. Briefly, 96-well micro plates were coated with 100 μl of 2 μg/ml cynomolgus Siglec15-his protein (in house made with SEQ ID NO: 21), or 2 μg/ml mouse Siglec15-his protein (in house made with SEQ ID NO: 22) in carbonate/bicarbonate buffer (pH 9.6) for 2 hours at 37° C. ELISA plates were washed once with wash buffer (PBS+0.05% v/v Tween-20, PBST) and then blocked with 200 μl/well blocking buffer (5% w/v non-fatty milk in PBST) overnight at 4° C. Plates were washed 4 times and incubated with 100 μl serially diluted anti-Siglec15 antibodies of the disclosure or controls (starting at 66.7 nM, 5-fold serial dilution in PBST with 2.5% w/v non-fatty milk) for 40 minutes at 37° C. ELISA plates were washed 4 times again and incubated with Peroxidase AffiniPure Goat Anti-Human IgG, F(ab)₂ fragment specific (1:5000 dilution in PBST buffer, Jackson Immunoresearch, Cat #109-035-097, 100 μl/well) for 40 minutes at 37° C. After a final wash, plates were incubated with 100 μl/well TMB (Innoreagents, Cat #TMB-S-002). The reaction was stopped 4 minutes later at room temperature with 50 μl 1M H₂SO₄, and the absorbance of each well was read on a microplate reader using dual wavelength mode with 450 nm for TMB and 630 nm as the reference wavelength, then the OD (450-630) values were plotted against antibody concentration. Data was analyzed using Graphpad Prism software and EC₅₀ values were reported.

T3 sequence (chain, as listed by the source limits assumed): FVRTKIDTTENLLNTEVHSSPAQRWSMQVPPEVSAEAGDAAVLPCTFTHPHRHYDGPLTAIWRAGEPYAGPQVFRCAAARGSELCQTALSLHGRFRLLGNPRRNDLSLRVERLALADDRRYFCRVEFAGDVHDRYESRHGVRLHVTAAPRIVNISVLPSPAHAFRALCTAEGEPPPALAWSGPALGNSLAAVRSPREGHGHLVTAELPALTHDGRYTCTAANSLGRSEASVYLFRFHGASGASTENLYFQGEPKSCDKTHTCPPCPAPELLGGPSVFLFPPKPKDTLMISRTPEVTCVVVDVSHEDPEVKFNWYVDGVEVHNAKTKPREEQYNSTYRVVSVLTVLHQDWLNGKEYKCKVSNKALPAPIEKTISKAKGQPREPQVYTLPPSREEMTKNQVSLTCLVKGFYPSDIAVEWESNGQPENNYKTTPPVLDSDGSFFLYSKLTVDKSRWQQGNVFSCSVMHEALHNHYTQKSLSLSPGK

| Binder | EC50 [1] | IC50 [2] | EC50 [3] |
| --- | --- | --- | --- |
| B2D7H7A3C1 (antibody, V domains shown, Mouse monoclonal antibody from hybridoma; also called mouse B2D7H7A3C1) VH: QVQLQQSGAELVRPGTSVQMSCKAAGYTFTNYWIGWVKQRPGHGLEWVGDIHPGINYTNNNEKFRGKATLTADTSSNTAYMQLRGLTSDDSAIYYCARVDYDYDGSYIMDYWGQGTSVTVSS VL: QIVLSQSPALLSASPGEKVTMTCRASSSVSYMYWYQQKPGSSPKPWIYATSNLTSGVPARFSGSGSGTSYSLTISRVEAEDAATYFCQQWNSKPWTFGGGSKLEIR | 0.101 nM |  |  |
| B2G12H3E8 (antibody, V domains shown, Mouse monoclonal antibody from hybridoma; also called mouse B2G12H3E8) VH: QVQLKQSGAELVRPGTSVQMSCKAVGYTFTNYWIGWVKQRPGHGLEWVGDIHPGINYTNNNEKFRGKATLTADTSSSTAYMQLRGLTSDDSAIYYCARVDYDYDGSYIMDYWGQGTSVTVSS VL: QIVLSQSPALLSASPGEKVTMTCRASSSVSYMYWYQQKPGSSPKPWIYATSNLTSGVPARFSGSGSGTSYSLTISRVEAEDAATYFCQQWNSKPWTFGGGSKLEIR | 0.0859 nM |  |  |
| A2A5C7E8 (antibody, V domains shown, Fully human antibody from transgenic mouse hybridoma; also called A2A5C7E8-1) VH: EVQLVQSGAEVKKPGESLRISCKGSGYSFTTYWISWVRQMPGKGLEWMGLIDPSDSYTNYSPSFQGHVTISTDKSISTAYLQWSSLKASDTAMYYCARGGYYGSEEDYWGQGTLVTVSS VL: EIVLTQSPGTLSLSPGERATLSCRASQSVSSSRLAWFQQKSGQAPRLLIFDASSRATGIPDRFSGSGSGTDFTLTISRLEPEDFAVYYCQQYGSSPRTFGQGTKVEFK |  | 0.394 nM | 0.139 nM |
| A2A5C7E8-2 (antibody, human IgG1, kappa, V domains shown, Variant of A2A5C7E8 modified in VH CDR2 (X1 = E)) VH: EVQLVQSGAEVKKPGESLRISCKGSGYSFTTYWISWVRQMPGKGLEWMGLIDPSESYTNYSPSFQGHVTISTDKSISTAYLQWSSLKASDTAMYYCARGGYYGSEEDYWGQGTLVTVSS VL: EIVLTQSPGTLSLSPGERATLSCRASQSVSSSRLAWFQQKSGQAPRLLIFDASSRATGIPDRFSGSGSGTDFTLTISRLEPEDFAVYYCQQYGSSPRTFGQGTKVEFKR |  | 0.446 nM | 0.151 nM |
| A2A5C7E8-3 (antibody, human IgG1, kappa, V domains shown, Variant of A2A5C7E8 modified in VH CDR2 (X2 = K)) VH: EVQLVQSGAEVKKPGESLRISCKGSGYSFTTYWISWVRQMPGKGLEWMGLIDPSDSYTNYSPSFKGHVTISTDKSISTAYLQWSSLKASDTAMYYCARGGYYGSEEDYWGQGTLVTVSS VL: EIVLTQSPGTLSLSPGERATLSCRASQSVSSSRLAWFQQKSGQAPRLLIFDASSRATGIPDRFSGSGSGTDFTLTISRLEPEDFAVYYCQQYGSSPRTFGQGTKVEFKR |  | 0.546 nM | 0.159 nM |

Further lines, results first:

| EC50 [1] | IC50 [2] | EC50 [3] | Binder |
| --- | --- | --- | --- |
| 1.64 nM | 0.674 nM | 0.276 nM | anti-Siglec15 benchmark (ch5G12) (antibody, human IgG1, kappa, V domains shown, ch5G12 (US 20190202912A1); also called BM; Siglec15-ch5G9) VH: QVQLQQPGAELVKPGASVKMSCKASGYTFTSYWITWVIQRPGQGLEWIGDIYCGSDTMHYNEKFKNKATLTVDTSSSTAYMQLSSLTSEDSAVYYCARWWDYGSSYDYFDYWGQGTTLTVSS VL: DIKMTQSPSSMYASLGERVTITCKASQDINSYLSWFQQKPGKSPKTLIYRANRLVDGVPSRFSGSGSGQDYSLTISSLEYEDMGIYYCLQYDEFPYTFGGGTKLEIKR |
| 0.0937 nM |  |  | B2H2H1H7 (antibody, V domains shown, Mouse monoclonal antibody from hybridoma; also called mouse B2H2H1H7; B2H2H1A7) VH: QVQLQQSGAELVRPGTSVQMSCKAAGYTFTNYWIGWVKQRPGHGLEWVGDIHPGINYTNNNEKFRGKATLTADTSSSTAYMQLRGLTSDDSAIYYCARVDYDYDGSYIMDYWGQGTSVTVSS VL: QIILSQSPALLSASPGEKVTMTCRASSSVSYMYWYQQKPGSSPKPWIYATSNLTSGVPARFSGSGSGTSYSLTISRVEAEDAATYFCQQWNSKPWTFGGGSRLEIR |
